{
  "source": "paper doi:10.1101/2024.03.06.583760",
  "about": "(bioRxiv, 2024)",
  "proteins": {"B1": {"name": "α-latrotoxin (natural protein)", "chain": "EGEDLTLEEKAEICSELELQQKYVDIASNIIGDLSSLPIAGKIAGTIAAAAMTATHVASGRLDIEQTLLGCSDLPFDQIKEVLENRFNEIDRKLDSHSAALEEITKLVEKSISVVEKTRKQMNKRFDEVMKSIQDAKVSPIISKINNFARYFDTEKERIRGLKLNDYILKLEEPNGILLHFKESRTPTDDSLQAPLFSIIEEGYAVPKSIDDELAFKVLYALLYGTQTYVSVMFFLLEQYSFLANHYYEKGYLEKYDEYFNSLNNVFLDFKSSLVGTGTSNNEGLLDRVLQVLMTVKNSEFLGLEKNGVDEMLNEKINLFNKIKEEIEGKQKMTLSETPENFAQISFDKDITTPIGDWRDGREVRYAVQYASETLFSKISHWSDPVSVREKACPTLRMPVDQTRRNVLVFRKFDSSKPQLVGEITPYLSNFIDIDRDLYNAASNPDSAVGFKEFTKLNYDGANIRATFDHGRTVFHAAAKSGNDKIMFGLTFLAKSTELNQPDKKGYTPIHVAADSGNAGIVNLLIQRGVSINSKTYHFLQTPLHLAAQRGFVTTFQRLMESPEININERDKDGFTPLHYAIRGGERILEAFLNQISIDVNAKSNTGLTPFHLAIIKNDWPVASTLLGSKKVDINAVDENNITALHYAAILGYLETTKQLINLKEINANVVSSPGLLSALHYAILYKHDDVASFLMRSSNVNVNLKALGGITPLHLAVIQGRKQILSLMFDIGVNIEQKTDEKYTPLHLAAMSKYPELIQILLDQGSNFEAKTNSGATPLHLATFKGKSQAALILLNNEVNWRDTDENGQMPIHGAAMTGLLDVAQAIISIDATVVDIEDKNSDTPLNLAAQNSHIDVIKYFIDQGADINTRNKKGLAPLLAFSKKGNLDMVKYLFDKNANVYIADNDGMNFFYYAVQNGHLNIVKYAMSEKDKFEWSNTDNNRRDECPNEECAISHFAVCDAVQFDRIEIVKYFVGTLGNFAICGPLHQAARYGHLDIVKYLVEEEFLSVDGSKTDTPLCYASENGHFTVVQYLVSNGAKVNHDCGNGMTAIDKAITKNHLQVVQFLAANGVDFRRKNSRGTTPFLTAVAENALHIAEYLIREKRQDININEQNVDKDTALHLAVYYKNLQMIKLLIKYGIDVTIRNAYDKTALDIAIDAKFSNIVEYLKTKSGKFRR"}},
  "molecular_target": "the molecule itself",
  "assay": "cryo-EM 2D classification",
  "note": "Where “and” joins values, the source holds several entries; their conditions need not be identical. Identical values can stand only once.",
  "data": [
    {"protein": "B1", "values": [
      {"measurement": "stoichiometry N", "value": "2 and 3 and 4"}
    ]}
  ]
}
